In US20180369326A1 (LA JOLLA INSTITUTE FOR ALLERGY AND IMMUNOLOGY, published 2018):

T1: TRAF2, endogenous, mouse primary CD4+ T cells (mouse, UniProt P39429 2-501)
T1 sequence (looked up): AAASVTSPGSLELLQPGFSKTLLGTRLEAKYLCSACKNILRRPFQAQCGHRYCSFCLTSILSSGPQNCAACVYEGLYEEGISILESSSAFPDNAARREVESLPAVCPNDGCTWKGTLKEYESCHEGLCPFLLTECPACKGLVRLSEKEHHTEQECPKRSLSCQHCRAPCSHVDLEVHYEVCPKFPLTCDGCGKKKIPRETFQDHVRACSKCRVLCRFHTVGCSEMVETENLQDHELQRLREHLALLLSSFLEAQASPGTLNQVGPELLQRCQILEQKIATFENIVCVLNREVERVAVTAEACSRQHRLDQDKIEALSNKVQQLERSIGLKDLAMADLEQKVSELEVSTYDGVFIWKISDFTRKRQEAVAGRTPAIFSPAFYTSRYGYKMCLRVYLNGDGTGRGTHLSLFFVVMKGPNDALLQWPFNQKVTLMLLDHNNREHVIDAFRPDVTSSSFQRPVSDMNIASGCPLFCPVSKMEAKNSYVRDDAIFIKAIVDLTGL

T2: IKKϵ, endogenous, mouse primary CD4+ T cells (mouse, UniProt Q9R0T8 1-717)
T2 construct: also called IKKi
T2 sequence (looked up): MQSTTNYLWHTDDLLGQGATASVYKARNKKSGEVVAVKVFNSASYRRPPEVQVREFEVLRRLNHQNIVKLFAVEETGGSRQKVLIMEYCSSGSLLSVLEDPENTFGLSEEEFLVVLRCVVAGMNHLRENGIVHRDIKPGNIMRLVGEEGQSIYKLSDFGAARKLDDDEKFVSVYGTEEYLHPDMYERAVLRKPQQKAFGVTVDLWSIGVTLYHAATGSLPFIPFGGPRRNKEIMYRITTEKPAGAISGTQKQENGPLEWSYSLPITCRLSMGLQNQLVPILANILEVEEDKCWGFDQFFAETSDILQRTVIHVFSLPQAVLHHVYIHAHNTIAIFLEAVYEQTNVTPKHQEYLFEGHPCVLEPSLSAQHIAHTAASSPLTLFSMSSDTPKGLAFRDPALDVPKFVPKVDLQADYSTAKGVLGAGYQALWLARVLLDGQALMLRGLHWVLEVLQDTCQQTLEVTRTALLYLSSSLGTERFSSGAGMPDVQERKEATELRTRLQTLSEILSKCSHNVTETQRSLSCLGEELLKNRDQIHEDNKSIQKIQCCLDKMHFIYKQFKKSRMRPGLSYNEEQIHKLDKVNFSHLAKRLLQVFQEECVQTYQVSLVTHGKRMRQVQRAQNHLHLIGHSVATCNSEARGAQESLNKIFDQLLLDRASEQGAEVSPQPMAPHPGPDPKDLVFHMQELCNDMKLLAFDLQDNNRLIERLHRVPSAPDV

T3: TRAF3, endogenous, mouse primary CD4+ T cells (mouse, UniProt Q60803 1-567)
T3 sequence (looked up): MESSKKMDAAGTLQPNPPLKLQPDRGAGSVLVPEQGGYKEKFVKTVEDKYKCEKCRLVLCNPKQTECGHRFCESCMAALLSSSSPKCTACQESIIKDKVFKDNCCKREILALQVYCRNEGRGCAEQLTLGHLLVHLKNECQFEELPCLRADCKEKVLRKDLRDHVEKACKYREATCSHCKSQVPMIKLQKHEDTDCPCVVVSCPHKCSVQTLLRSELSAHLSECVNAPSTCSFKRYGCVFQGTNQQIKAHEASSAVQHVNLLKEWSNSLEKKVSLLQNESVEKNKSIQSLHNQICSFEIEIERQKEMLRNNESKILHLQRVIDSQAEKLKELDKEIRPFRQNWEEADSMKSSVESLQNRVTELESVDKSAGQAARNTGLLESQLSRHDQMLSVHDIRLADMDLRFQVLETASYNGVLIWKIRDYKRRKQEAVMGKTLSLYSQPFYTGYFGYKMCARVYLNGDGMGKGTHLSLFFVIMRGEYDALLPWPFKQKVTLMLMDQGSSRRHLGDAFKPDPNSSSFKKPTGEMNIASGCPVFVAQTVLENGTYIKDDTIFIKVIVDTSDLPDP

T4: TANK-binding kinase 1 (TBK1), endogenous, mouse primary CD4+ T cells (mouse, UniProt Q9WUN2 1-729)
T4 construct: also called endogenous TBK1
T4 sequence (looked up): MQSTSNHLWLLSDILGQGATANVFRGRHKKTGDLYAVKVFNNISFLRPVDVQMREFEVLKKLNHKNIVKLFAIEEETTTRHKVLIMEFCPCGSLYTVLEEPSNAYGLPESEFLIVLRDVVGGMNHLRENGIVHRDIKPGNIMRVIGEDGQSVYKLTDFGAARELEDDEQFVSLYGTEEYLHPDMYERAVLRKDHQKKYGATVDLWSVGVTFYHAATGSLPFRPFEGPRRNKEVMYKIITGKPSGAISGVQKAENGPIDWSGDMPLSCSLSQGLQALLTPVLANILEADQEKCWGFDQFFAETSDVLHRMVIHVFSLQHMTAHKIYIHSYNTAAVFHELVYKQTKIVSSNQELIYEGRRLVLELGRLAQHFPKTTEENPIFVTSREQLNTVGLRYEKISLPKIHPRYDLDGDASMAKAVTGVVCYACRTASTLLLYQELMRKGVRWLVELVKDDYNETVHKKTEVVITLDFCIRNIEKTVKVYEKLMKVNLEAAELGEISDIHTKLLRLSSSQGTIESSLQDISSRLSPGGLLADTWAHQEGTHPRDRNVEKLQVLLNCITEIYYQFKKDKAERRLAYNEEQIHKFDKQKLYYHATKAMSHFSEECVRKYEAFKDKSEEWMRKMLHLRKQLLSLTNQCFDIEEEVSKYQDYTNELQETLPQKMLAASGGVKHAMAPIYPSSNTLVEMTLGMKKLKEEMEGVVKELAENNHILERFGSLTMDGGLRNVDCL

T5: TANK-binding kinase 1 (TBK1), endogenous, human cell lines (Jurkat JTAg, HEK293T) (human, UniProt Q9UHD2 1-729)
T5 construct: Species follows from the human cell lines; also called endogenous TBK1
T5 sequence (looked up): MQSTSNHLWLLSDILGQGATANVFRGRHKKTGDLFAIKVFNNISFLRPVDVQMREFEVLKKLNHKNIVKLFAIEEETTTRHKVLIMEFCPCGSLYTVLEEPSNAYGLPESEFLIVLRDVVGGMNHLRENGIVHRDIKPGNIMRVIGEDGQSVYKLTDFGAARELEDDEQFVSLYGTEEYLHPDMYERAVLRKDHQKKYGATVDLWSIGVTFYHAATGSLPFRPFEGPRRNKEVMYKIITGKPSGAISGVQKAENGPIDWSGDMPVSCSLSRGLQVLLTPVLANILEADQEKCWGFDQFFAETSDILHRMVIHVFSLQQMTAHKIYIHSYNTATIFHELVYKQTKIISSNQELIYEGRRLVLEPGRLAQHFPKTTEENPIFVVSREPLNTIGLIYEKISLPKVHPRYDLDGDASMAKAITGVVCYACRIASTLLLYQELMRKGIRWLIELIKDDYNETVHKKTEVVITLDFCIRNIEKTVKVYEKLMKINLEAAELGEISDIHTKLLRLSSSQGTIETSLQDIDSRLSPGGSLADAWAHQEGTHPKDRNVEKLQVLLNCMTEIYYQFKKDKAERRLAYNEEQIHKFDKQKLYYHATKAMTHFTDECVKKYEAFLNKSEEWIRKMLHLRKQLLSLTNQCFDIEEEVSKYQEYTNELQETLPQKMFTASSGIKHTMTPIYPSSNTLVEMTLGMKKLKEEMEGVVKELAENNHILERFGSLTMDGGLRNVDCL


Experiments:
[1] = molecular target: p85α, the regulatory subunit of PI3K, endogenous, mouse primary CD4+ T cells (mouse, UniProt P26450 2-724); experiment: co-IP (anti-ICOS IP, immunoblot), mouse CD4+ T cells unstimulated or stimulated with anti-CD3, anti-ICOS or both (FIG. 6a)
[2] = molecular target: T1, TRAF2, endogenous, mouse primary CD4+ T …; experiment: anti-ICOS IP and immunoblot, mouse primary CD4+ T cells restimulated with anti-CD3 plus anti-ICOS (FIG. 14)
[3] = molecular target: T2, IKKϵ, endogenous, mouse primary CD4+ T …; experiment: as above
[4] = molecular target: TRAF5, endogenous, mouse primary CD4+ T cells (mouse, UniProt P70191 1-558); experiment: as above
[5] = molecular target: T3, TRAF3, endogenous, mouse primary CD4+ T …; experiment: as above
[6] = molecular target: T4, TANK-binding kinase 1 (TBK1), …; experiment: co-IP (anti-ICOS IP, immunoblot), mouse primary CD4+ T cells (FIG. 2a)
From the text: IPs or whole cell lysates (WCL) were immunoblotted with the indicated Abs. 5% WCL was used as input to control for IP Western. […] Jurkat T cells transfected with WT ICOS, mIProx, YF or tailless (TL) ICOS plasmids were stimulated with anti-CD3 plus −ICOS mAbs prior to IP and immunoblotting. […] In vitro activated primary mouse CD4⁺ T cells were stimulated with anti-CD3 plus the indicated costimulatory mAbs, and IP or WCL were subjected to immunoblotting with the indicated Abs. Shown are representative of three experiments.
(§1) The human leukemic Jurkat T cell line, JTAg, was previously described (Li, J et al. J Immunol 2013, 191(1): 200-207; Rolf J et al., J Immunol 2010, 185(7): 4042-4052) and the HEK 293T cell line was obtained from ATCC. These cell lines have not been recently STR profiled but tested negative for mycoplasma contamination. JTAg cells in logarithmic growth phase were transfected with plasmid DNAs by electroporation and incubated for 24 hours.

[7] = molecular target: T5, TANK-binding kinase 1 (TBK1), …; experiment: anti-FLAG IP and immunoblot, transfected HEK293T cells (FIG. 6e)
Procedure: Shown are representative of three experiments.
as §1

Sequence of TRAF5, endogenous, mouse primary CD4+ T cells (P70191 whole entry): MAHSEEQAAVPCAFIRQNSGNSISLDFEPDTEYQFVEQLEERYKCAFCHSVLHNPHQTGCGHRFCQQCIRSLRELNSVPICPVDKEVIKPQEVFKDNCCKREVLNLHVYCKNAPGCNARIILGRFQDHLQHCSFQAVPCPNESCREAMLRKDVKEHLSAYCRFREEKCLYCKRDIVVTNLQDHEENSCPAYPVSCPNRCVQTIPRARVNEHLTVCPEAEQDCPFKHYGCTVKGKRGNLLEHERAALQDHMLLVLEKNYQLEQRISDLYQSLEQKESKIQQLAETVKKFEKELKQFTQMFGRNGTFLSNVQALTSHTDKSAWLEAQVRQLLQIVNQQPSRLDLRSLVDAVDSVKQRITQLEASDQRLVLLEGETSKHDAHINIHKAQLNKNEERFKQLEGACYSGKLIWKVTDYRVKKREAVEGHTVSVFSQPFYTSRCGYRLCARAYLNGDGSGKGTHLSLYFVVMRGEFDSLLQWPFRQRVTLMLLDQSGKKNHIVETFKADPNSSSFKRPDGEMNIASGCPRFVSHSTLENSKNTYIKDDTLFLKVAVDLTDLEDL
Sequence of p85α, the regulatory subunit of PI3K, endogenous, mouse primary CD4+ T cells (P26450 2-724): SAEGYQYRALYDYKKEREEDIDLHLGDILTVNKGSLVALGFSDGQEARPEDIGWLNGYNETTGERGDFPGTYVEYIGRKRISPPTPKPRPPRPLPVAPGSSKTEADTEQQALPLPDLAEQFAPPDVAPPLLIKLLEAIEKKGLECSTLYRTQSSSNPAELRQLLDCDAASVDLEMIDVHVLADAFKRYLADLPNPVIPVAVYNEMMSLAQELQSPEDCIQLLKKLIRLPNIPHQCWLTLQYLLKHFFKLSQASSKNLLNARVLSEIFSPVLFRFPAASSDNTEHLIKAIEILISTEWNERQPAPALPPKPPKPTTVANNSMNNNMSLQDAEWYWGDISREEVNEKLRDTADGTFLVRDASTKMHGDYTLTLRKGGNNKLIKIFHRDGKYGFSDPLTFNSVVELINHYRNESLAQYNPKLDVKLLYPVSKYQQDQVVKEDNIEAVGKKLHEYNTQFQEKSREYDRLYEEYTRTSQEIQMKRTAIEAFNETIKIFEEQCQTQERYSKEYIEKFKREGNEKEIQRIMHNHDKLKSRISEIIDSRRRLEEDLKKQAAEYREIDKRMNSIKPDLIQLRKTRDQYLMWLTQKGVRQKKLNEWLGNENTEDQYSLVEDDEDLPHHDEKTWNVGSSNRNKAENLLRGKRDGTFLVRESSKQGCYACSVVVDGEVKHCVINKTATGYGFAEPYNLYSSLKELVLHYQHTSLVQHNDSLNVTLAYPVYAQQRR

binding result [1] | binding result [2] | binding result [3] | binding result [4] | binding result [5] | binding result [6] | binding result [7] | Binder
binds | no binding | no binding | no binding | no binding | binds |  | ICOS, endogenous, of mouse primary CD4+ T cells (receptor) EINGSADHRMFSFHNGGVQISCKYPETVQQLKMRLFREREVLCELTKTKGSGNAVSIKNPMLCLYHLSNNSVSFFLNNPDSSQGSYYFCSLSIFDPPPFQERNLSGGYLHIYESQLCCQLKLWLPVGCAAFVVVLLFGCILIIWFSKKKYGSSVHDPNSEYMFMAAVNTNKKSRLAGVTS
 |  |  |  |  |  | binds | FLAG-tagged WT TRAF3 (other, Expressed in HEK293T cells; The position of the FLAG tag is unknown; not shown: FLAG tag) MESSKKMDSPGALQTNPPLKLHTDRSAGTPVFVPEQGGYKEKFVKTVEDKYKCEKCHLVLCSPKQTECGHRFCESCMAALLSSSSPKCTACQESIVKDKVFKDNCCKREILALQIYCRNESRGCAEQLMLGHLLVHLKNDCHFEELPCVRPDCKEKVLRKDLRDHVEKACKYREATCSHCKSQVPMIALQKHEDTDCPCVVVSCPHKCSVQTLLRSELSAHLSECVNAPSTCSFKRYGCVFQGTNQQIKAHEASSAVQHVNLLKEWSNSLEKKVSLLQNESVEKNKSIQSLHNQICSFEIEIERQKEMLRNNESKILHLQRVIDSQAEKLKELDKEIRPFRQNWEEADSMKSSVESLQNRVTELESVDKSAGQVARNTGLLESQLSRHDQMLSVHDIRLADMDLRFQVLETASYNGVLIWKIRDYKRRKQEAVMGKTLSLYSQPFYTGYFGYKMCARVYLNGDGMGKGTHLSLFFVIMRGEYDALLPWPFKQKVTLMLMDQGSSRRHLGDAFKPDPNSSSFKKPTGEMNIASGCPVFVAQTVLENGTYIKDDTIFIKVIVDTSDLPDP
